According to publication PMC11681868 (2024):
Where no end group is shown, it is not given here. [ ]: non-standard residue; d: D form. pS = N[C@@H](COP(=O)(O)O)C(=O)O

How the values were obtained:
A3 = experiment: ITC
G11 = experiment: ITC

RPHFPQF[pS]YSAS [phosphorylated Akt peptide] gave a Kd (A3) of 0.0318 µM and a Kd (G11) of 0.0181 µM.
